Assay [1] addresses T1, human PTHrP (1-34) (human).
T1 construct: Coated on the ELISA plate at 1 ug/ml; Added at 1 ng/ml final in the cAMP neutralisation assay, where the species is not restated; also called parathyroid hormone-related peptide (1-34)
Kind of assay: ELISA, plate coated with human PTHrP (1-34). The protocol:
An ELISA plate for determining antigen-binding ability was prepared as follows. Each well of a 96-well ELISA plate was coated with 100 μl of a coating buffer containing 1 μg/ml of human PTHrP (1-34) and then blocked with 200 μl of a dilution buffer. Subsequently, each well was added with each of the serial dilutions of the COS-7 cell culture supernatant in which each of the hybrid antibodies and humanized antibodies was expressed, or added with each of the serial dilutions of each of the hybrid antibodies and humanized antibodies in a purified form. The plate was incubated at room temperature and washed with PBS-Tween 20. Subsequently, each well was added with 100 μl of alkaline phosphatase-conjugated goat anti-human IgG antibody (TAGO). The plate was incubated at room temperature and washed with PBS-Tween 20. Subsequently, each well was added with 1 mg/ml of a substrate solution ("Sigma 104"; p-nitrophenylphosphoric acid, SIGMA). The solution was measured on its absorbance at 405 nm using Microplate Reader (Bio Rad).
For orientation: ELISA stands for enzyme-linked immunosorbent assay.

Assay [2] deals with T1, human PTHrP (1-34). Kind of assay: solid phase RIA of hybridoma culture supernatant. On the procedure: The screening of hybridomas was performed by determining the presence of PTHrP-recognition antibodies in the culture supernatant of the wells in which cell growth had been observed in HAT medium, by solid phase RIA method. The hybridomas were collected from the wells in which the binding ability to the PTHrP-recognition antibodies had been confirmed. The hybridomas thus obtained was suspended into RPMI-1640 medium containing 15% FCS supplemented with OPI-supplement (Sigma), followed by unification of the hybridomas by limiting dilution method.

For assay [3], the target named is T1, human PTHrP (1-34). Kind of assay: ELISA, plate coated with human PTHrP (1-34); COS-7 supernatant or purified antibody. On the procedure:
An ELISA plate for the determination of antigen-binding ability was prepared as follows. Each well of a 96-well ELISA plate was coated with 100 µl of a coating buffer supplemented with 1 µg/ml of human PTHrP (1-34) (Peptide Research Institute), and then blocked with 200 µl of a dilution buffer. Each well was added with each of the serial dilutions of the COS-7 cell culture supernatant in which each of the chimeric antibodies had been expressed, or added with each of the serial dilutions of each of the chimeric antibodies per se in a purified form. After the plate was incubated at room temperature and washed with PBS-Tween 20, each well of the plate was added with 100 µl of a solution of alkaline phosphatase-conjugated goat anti-human IgG antibodies (TAGO). After the plate was incubated at room temperature and washed with PBS-Tween 20, each well of the plate was added with 1 mg/ml of a substrate solution ("Sigma 104"; p-nitrophenylphosphoric acid, SIGMA). The solution was measured on its absorbance at 405 nm using Microplate Reader (Bio Rad).

Consider twelve molecules from patent US7655227 (Chugai, dated 2010).

B1: antibody having both a humanized H-chain version “a” and a chimeric L-chain (antibody, V domains shown)
VH: QVQLVESGGGVVQPGRSLRLSCAASGFTFSSYGMSWVRQAPGKGLEWVATISSGGSYTYYPDSVKGRFTISRDNSKNTLYLQMNSLRAEDTAVYYCARQTTMTYFAYWGQGTLVTVSS
VL: QLVLTQSSSASFSLGASAKLTCTLSSQHSTYTIEWYQQQPLKPPKYVMDLKQDGSHSTGDGIPDRFSGSSSGADRYLSISNIQPEDEAMYICGVGDTIKEQFVYVFGGGTKVTVLG
notes: Human Cγ1 H-chain C-region
As for B1, the binding result in assay [1] is recorded as “binds”.

B2: mouse monoclonal antibody #23-57-137-1 against human PTHrP (1-34) (antibody, V domains shown)
VH: EVQLVESGGDLVKPGGSLKLSCAASGFTFSSYGMSWIRQTPDKRLEWVATISSGGSYTYYPDSVKGRFTISRDNAKNTLYLQMSSLKSEDTAMFYCARQTTMTYFAYWGQGTLVTVSA
VL: QLVLTQSSSASFSLGASAKLTCTLSSQHSTYTIEWYQQQPLKPPKYVMDLKQDGSHSTGDGIPDRFSGSSSGADRYLSISNIQPEDEAMYICGVGDTIKEQFVYVFGGGTKVTVLG
notes: Mouse antibody in hybridoma culture supernatant (FERM BP-5631); Lambda L-chain; also called MBC1
Regarding B2, in assay [2], the binding result is given as “binds”.

B3: chimeric #23-57-137-1 antibody with L-chain κ chain C-region (antibody, IgG1, V domains shown)
VH: EVQLVESGGDLVKPGGSLKLSCAASGFTFSSYGMSWIRQTPDKRLEWVATISSGGSYTYYPDSVKGRFTISRDNAKNTLYLQMSSLKSEDTAMFYCARQTTMTYFAYWGQGTLVTVSA
VL: QLVLTQSSSASFSLGASAKLTCTLSSQHSTYTIEWYQQQPLKPPKYVMDLKQDGSHSTGDGIPDRFSGSSSGADRYLSISNIQPEDEAMYICGVGDTIKEQFVYVFGGGTKVTVLG
notes: Mouse V-regions joined to human H-chain C-region Cγ1 (IgG1) and human κ chain C-region cloned from HEF-PM1k-gk; Expressed in COS-7 cells; also called chimeric antibody (MBC1HcDNA/pCOS1 and MBC1L(κ)/neo)
Consider B3, for which the binding result in assay [3] is on record as “binds”.

B4: chimeric #23-57-137-1 antibody with L-chain λ chain C-region (antibody, IgG1, V domains shown)
VH: EVQLVESGGDLVKPGGSLKLSCAASGFTFSSYGMSWIRQTPDKRLEWVATISSGGSYTYYPDSVKGRFTISRDNAKNTLYLQMSSLKSEDTAMFYCARQTTMTYFAYWGQGTLVTVSA
VL: QLVLTQSSSASFSLGASAKLTCTLSSQHSTYTIEWYQQQPLKPPKYVMDLKQDGSHSTGDGIPDRFSGSSSGADRYLSISNIQPEDEAMYICGVGDTIKEQFVYVFGGGTKVTVLG
notes: Mouse V-regions joined to human H-chain C-region Cγ1 (IgG1) and human λ chain C-region (isotype Mcg+Ke+Oz-, EMBL X57819); Expressed in COS-7 cells; also called chimeric antibody (MBC1HcDNA/pCOS1 and MBC1L(λ)/neo)
Regarding B4, the binding result in assay [3] was “binds”.

B5: humanized #23-57-137-1 antibody having H-chain version “a” and L-chain version “q” (antibody, IgG1, V domains shown)
VH: QVQLVESGGGVVQPGRSLRLSCAASGFTFSSYGMSWVRQAPGKGLEWVATISSGGSYTYYPDSVKGRFTISRDNSKNTLYLQMNSLRAEDTAVYYCARQTTMTYFAYWGQGTLVTVSS
VL: QLVLTQSPSASASLGASVKLTCTLSSQHSTYTIEWYQQQPEKGPKYLMDLKQDGSHSTGDGIPDRFSGSSSGAERYLTISSLQSEDEADYICGVGDTIKEQFVYVFGGGTKLTVLG
notes: Human Cγ1 (IgG1) and human λ C-regions; expressed in COS-7 cells and in CHO cells; also called hMBC1Lqλ
For B5, the binding result in assay [1] is on record as “binds”.

B6: hybrid antibody with humanized H-chain version a and L-chain hmmMBC1L(λ) (human FR1/mouse FR2,3,4) (antibody, V domains shown)
VH: QVQLVESGGGVVQPGRSLRLSCAASGFTFSSYGMSWVRQAPGKGLEWVATISSGGSYTYYPDSVKGRFTISRDNSKNTLYLQMNSLRAEDTAVYYCARQTTMTYFAYWGQGTLVTVSS
VL: QLVLTQSPSASASLGASVKLTCTLSSQHSTYTIEWYQQQPLKPPKYVMDLKQDGSHSTGDGIPDRFSGSSSGADRYLSISNIQPEDEAMYICGVGDTIKEQFVYVFGGGTKVTVL
notes: Human Cγ1 and human λ C-regions; expressed in COS-7 cells
Consider B6, for which the binding result in assay [1] is “binds”.

B7: humanized #23-57-137-1 antibody having H-chain version “a” and L-chain version “t” (antibody, IgG1, V domains shown)
VH: QVQLVESGGGVVQPGRSLRLSCAASGFTFSSYGMSWVRQAPGKGLEWVATISSGGSYTYYPDSVKGRFTISRDNSKNTLYLQMNSLRAEDTAVYYCARQTTMTYFAYWGQGTLVTVSS
VL: QLVLTQSPSASASLGASVKLTCTLSSQHSTYTIEWYQQQPEKGPRYVMDLKQDGSHSTGDGIPDRFSGSSSGAERYLTISSLQSEDEADYICGVGDTIKEQFVYVFGGGTKLTVLG
notes: Human Cγ1 (IgG1) and human λ C-regions; expressed in COS-7 cells; also called hMBC1Ltλ
Regarding B7, the binding result in assay [1] is given as “binds”.

B8: humanized #23-57-137-1 antibody having H-chain version “a” and L-chain version “m” (antibody, IgG1, V domains shown)
VH: QVQLVESGGGVVQPGRSLRLSCAASGFTFSSYGMSWVRQAPGKGLEWVATISSGGSYTYYPDSVKGRFTISRDNSKNTLYLQMNSLRAEDTAVYYCARQTTMTYFAYWGQGTLVTVSS
VL: QLVLTQSPSASASLGASVKLTCTLSSQHSTYTIEWYQQQPEKGPRYLMDLKQDGSHSTGDGIPDRFSGSSSGAERYLTISSLQSEDEADYYCGVGDTIKEQFVYVFGGGTKLTVLG
notes: Human Cγ1 (IgG1) and human λ C-regions; expressed in COS-7 cells; also called hMBC1Lmλ
As for B8, in assay [1], the binding result is “binds”.

B9: humanized #23-57-137-1 antibody having H-chain version “a” and L-chain version “o” (antibody, IgG1, V domains shown)
VH: QVQLVESGGGVVQPGRSLRLSCAASGFTFSSYGMSWVRQAPGKGLEWVATISSGGSYTYYPDSVKGRFTISRDNSKNTLYLQMNSLRAEDTAVYYCARQTTMTYFAYWGQGTLVTVSS
VL: QLVLTQSPSASASLGASVKLTCTLSSQHSTYTIEWYQQQPEKGPRYVMDLKQDGSHSTGDGIPDRFSGSSSGAERYLTISSLQSEDEADYYCGVGDTIKEQFVYVFGGGTKLTVLG
notes: Human Cγ1 (IgG1) and human λ C-regions; expressed in COS-7 cells; also called hMBC1Loλ
B9: the binding result in assay [1] was “binds”.

B10: hybrid antibody with humanized H-chain version a and L-chain m/hMBC1Laλ (mouse FR1,2/human FR3,4) (antibody, V domains shown)
VH: QVQLVESGGGVVQPGRSLRLSCAASGFTFSSYGMSWVRQAPGKGLEWVATISSGGSYTYYPDSVKGRFTISRDNSKNTLYLQMNSLRAEDTAVYYCARQTTMTYFAYWGQGTLVTVSS
VL: QLVLTQSSSASFSLGASAKLTCTLSSQHSTYTIEWYQQQPLKPPKYVMDLKQDGSHSTGDGIPDRFSGSSSGAERYLTISSLQSEDEADYYCGVGDTIKEQFVYVFGGGTKLTVL
notes: as for B6
Consider B10, for which, in assay [1], the binding result was “binds”.

B11: humanized #23-57-137-1 antibody having H-chain version “a” and L-chain version “j” (antibody, IgG1, V domains shown)
VH: QVQLVESGGGVVQPGRSLRLSCAASGFTFSSYGMSWVRQAPGKGLEWVATISSGGSYTYYPDSVKGRFTISRDNSKNTLYLQMNSLRAEDTAVYYCARQTTMTYFAYWGQGTLVTVSS
VL: QLVLTQSPSASASLGASVKLTCTLSSQHSTYTIEWYQQQPEKGPKYLMDLKQDGSHSTGDGIPDRFSGSSSGAERYLTISSLQSEDEADYYCGVGDTIKEQFVYVFGGGTKLTVLG
notes: Human Cγ1 (IgG1) and human λ C-regions; expressed in COS-7 cells; also called hMBC1Ljλ
As to B11, the binding result in assay [1] is “binds”.

B12: humanized #23-57-137-1 antibody having H-chain version “a” and L-chain version “l” (antibody, IgG1, V domains shown)
VH: QVQLVESGGGVVQPGRSLRLSCAASGFTFSSYGMSWVRQAPGKGLEWVATISSGGSYTYYPDSVKGRFTISRDNSKNTLYLQMNSLRAEDTAVYYCARQTTMTYFAYWGQGTLVTVSS
VL: QLVLTQSPSASASLGASVKLTCTLSSQHSTYTIEWYQQQPEKGPKYVMDLKQDGSHSTGDGIPDRFSGSSSGAERYLTISSLQSEDEADYYCGVGDTIKEQFVYVFGGGTKLTVLG
notes: Human Cγ1 (IgG1) and human λ C-regions; expressed in COS-7 cells; also called hMBC1Llλ
With B12, the binding result in assay [1] was “binds”.
